Test results as given in paper PMC5509742, “Structure of polyhydroxyalkanoate (PHA) synthase PhaC from Chromobacterium sp. USM2, producing biodegradable plastics” (Scientific Reports, 2017).

How the values were obtained:
[1] = target: the molecule itself; assay: AUC; sedimentation velocity, 20 °C, 20 µM PhaCCs-CAT without DL-3HB-CoA, 10 mM Tris-HCl (pH 8.0), 100 mM NaCl, 3 mM β-ME; monomer to dimer
[2] = target: the molecule itself; assay: AUC; sedimentation velocity, 20 °C, 20,000 rpm, 5 µM full-length PhaCCs without substrate, 10 mM Tris-HCl (pH 8.0), 100 mM NaCl, 3 mM β-ME; monomer to dimer
[3] = target: the molecule itself; assay: AUC; sedimentation velocity, 20 °C, 20,000 rpm, 5 µM full-length PhaCCs with 50 µM DL-3HB-CoA (10-fold molar ratio), 10 mM Tris-HCl (pH 8.0), 100 mM NaCl, 3 mM β-ME

| Protein | stoichiometry N [1] | stoichiometry N [2] | stoichiometry N [3] |
| --- | --- | --- | --- |
| catalytic domain of PhaC from Chromobacterium sp. USM2 (residues 175-567) (domain or fragment, two additional vector-derived residues (Gly-Pro) identified at the N-terminus after PreScission cleavage; Class I PHA synthase PhaC, Chromobacterium sp; USM2, C-terminal catalytic (CAT) domain, residues 175-567 (1179 nucleotides, calc. 43.8 kDa); Cloned into the His-fusion vector pET47b(+); the His-tag was removed with PreScission protease; also called PhaCCs-CAT; mol A; source: E. coli Rosetta 2 …) not shown | 2 | – | – |
| PHA synthase PhaC from Chromobacterium sp. USM2, full-length (enzyme, two additional vector-derived residues (Gly-Pro) identified at the N-terminus after PreScission cleavage; Class I PHA synthase PhaC, Chromobacterium sp; USM2; full-length gene of 1704 nucleotides, calc; 63.4 kDa; Cloned into the His-fusion vector pET47b(+); the His-tag was removed with PreScission protease; also called PhaCCs; full-length PhaCCs; source: E. coli Rosetta 2 (DE3), purified (Ni-NTA, …)) not shown | – | 2 | ~4 |
